Results taken from article PMC4907695.

Legend:
[1] = molecular target: SecA^A795C-FL (SecA with a fluorescein label at position 795 on the tip of the two-helix finger) (E. coli) (UniProt P10408); test: other fluorescence titration; 10 nM SecA* fixed, SecYEG varied; quenching of the fluorescein on SecA*; TSG buffer (20 mM Tris pH 7.5, 130 mM NaCl, 10% glycerol) with 0.02% DDM, 2 mM MgCl2, 1 mM AMPPNP; no DTT; fitted to a tight binding equation
[2] = molecular target: SecA^A795C-FL (SecA with a fluorescein label at position 795 on the tip of the two-helix finger) (E. coli) (UniProt P10408); test: other fluorescence titration; as a1 (10 nM SecA*, TSG buffer, 0.02% DDM, 2 mM MgCl2, 1 mM AMPPNP) with SecYLGEG pre-incubated with 100 mM DTT

Kd [1] [µM] | Kd [2] [µM] | Substance
0.041 | – | SecYLGEG, oxidised (SecYEG with the lateral gate closed by a disulphide bond between S87C and F286C of SecY) (from UniProt P0AGA2 1-443; P0AG96 1-127; P0AG99 1-110) (complex)
– | 0.019 | SecYLGEG pre-incubated with 100 mM DTT (disulphide between S87C and F286C of SecY reduced) (from UniProt P0AGA2 1-443; P0AG96 1-127; P0AG99 1-110) (complex)
